Experimental data taken from patent US20130039922A1 (YEDA RESEARCH AND DEVELOPMENT, published 2013).

T1: mouse MMP-9 catalytic domain (mouse, UniProt P41245 107-215; P41245 391-443, biotinylated (site not stated))
T1 construct: range 107-215;range 391-443; also called Biotinylated mouse catalytic MMP-9; not shown: N-terminal His tag from the pET3a construct
T1 sequence (looked up): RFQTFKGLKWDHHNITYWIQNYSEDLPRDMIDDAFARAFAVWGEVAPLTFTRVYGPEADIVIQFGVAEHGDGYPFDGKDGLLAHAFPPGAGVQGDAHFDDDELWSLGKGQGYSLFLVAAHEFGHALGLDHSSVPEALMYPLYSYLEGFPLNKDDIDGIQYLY

T2: Human pro-MMP-2 (human, UniProt P08253 30-660)
T2 construct: Zymogen with pro-domain; also called MMP-2 zymogen
T2 sequence (looked up): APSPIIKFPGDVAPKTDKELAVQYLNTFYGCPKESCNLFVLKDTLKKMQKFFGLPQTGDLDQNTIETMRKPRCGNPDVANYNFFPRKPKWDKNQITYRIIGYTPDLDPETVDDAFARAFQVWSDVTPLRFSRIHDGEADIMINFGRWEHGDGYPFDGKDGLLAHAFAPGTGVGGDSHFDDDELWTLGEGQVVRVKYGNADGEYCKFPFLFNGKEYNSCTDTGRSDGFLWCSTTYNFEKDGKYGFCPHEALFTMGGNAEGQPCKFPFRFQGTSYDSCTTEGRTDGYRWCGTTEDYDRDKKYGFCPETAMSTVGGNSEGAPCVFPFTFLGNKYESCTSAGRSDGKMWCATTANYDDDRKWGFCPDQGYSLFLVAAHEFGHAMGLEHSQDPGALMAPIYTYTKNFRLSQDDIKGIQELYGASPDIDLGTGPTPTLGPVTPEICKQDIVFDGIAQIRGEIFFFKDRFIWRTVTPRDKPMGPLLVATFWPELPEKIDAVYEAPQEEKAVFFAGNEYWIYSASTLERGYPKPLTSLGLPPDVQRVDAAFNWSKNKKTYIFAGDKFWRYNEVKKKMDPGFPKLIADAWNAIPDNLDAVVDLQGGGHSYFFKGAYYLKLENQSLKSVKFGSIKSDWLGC


How the values were obtained:
[1] = biological target: T3, MMP-9 catalytic fibronectin fragment (human or mouse (not told which)); assay: SPR (BIAcore 3000), biotin-labeled MMP-9 on SA chip, antibody in flow; KD=kd/ka
T3 construct: domain: catalytic fibronectin fragment; Immobilized on a streptavidin (SA) sensor chip for SPR; also called Biotinylated human or mouse MMP-9 catalytic fibronectin fragment; Biotin-labeled MMP-9
Excerpt: (§1) FIGS. 13A-B are graphs illustrating results of SPR analysis of SDS3/SDS4 binding to MMP-9. Biotinylated human or mouse MMP-9 catalytic fibronectin fragment was immobilized on streptavidin (SA) chip. Control-corrected sensorgrams corresponding to the interaction of SDS3(FIG. 13A) and SDS4 (FIG. 13B) with biosensor surface-immobilized MMP-9 are shown. Antibody concentrations are represented by different colors, with specific values indicated. The data were collected in duplicate, and representative SPR sensorgrams in the ligand concentration series are shown. The ka (1/Ms) and kd (1/s) values were determined by SPR analysis, and KD (M) was calculated from ka and kd (KD=kd/ka).RU,response units.
The affinity between SDS3/SDS4 and human and mouse MMP-9 catalytic fibronectin fragment was measured with a BIAcore 3000 instrument (BIACORE). Biotin-labeled MMP-9 was immobilized on a sensor chips SA by the biotin-streptavidin coupling method, according to the manufacturer's instructions. […] The interaction was monitored as the change in the SPR response. The association and dissociation rate constants, kₐ and kd, were determined by analysis of the appropriate regions of the sensogram using the BIAevaluation 3.2 software package (Pharmacia). The apparent equilibrium dissociation constant KD was determined from the ratio of the two rate constants (kd/kₐ).

[2] = biological target: T1, mouse MMP-9 catalytic domain; assay: ELISA, biotinylated mouse catalytic MMP-9 on streptavidin plate, soluble antibody
Experimental: ELISA Binding Assay: Biotinylated mouse catalytic MMP-9 was coupled to streptavidin coated microtiter plate (Nunc) according to manufacture protocol. After the plates were coated, they were incubated with the SDS3/4 mAb for 2 hours at room temperature. The plates were washed, and bound Ab was detected with peroxidase-labeled goat anti-mouse IgG (Jackson) according to standard procedures. EC₅₀, or concentration of half-maximal binding was calculated from a four-parametric sigmoidal-curve fitting analysis.

[3] = biological target: T3, MMP-9 catalytic fibronectin fragment; assay: SPR (BIAcore 3000), biotin-labeled MMP-9 on SA chip, antibody in flow
Excerpt: as §1
The affinity between SDS3/SDS4 and human and mouse MMP-9 catalytic fibronectin fragment was measured with a BIAcore 3000 instrument (BIACORE). Biotin-labeled MMP-9 was immobilized on a sensor chips SA by the biotin-streptavidin coupling method, according to the manufacturer's instructions. All measurements were carried out at 25° C. and with a flow rate of 20 μl/min for both the association and dissociation phases in TBS buffer (50 mM Tris, 100 mM NaCl, 5 mM CaCl₂, pH 7.5). The interaction was monitored as the change in the SPR response. The association and dissociation rate constants, kₐ and kd, were determined by analysis of the appropriate regions of the sensogram using the BIAevaluation 3.2 software package (Pharmacia). The apparent equilibrium dissociation constant KD was determined from the ratio of the two rate constants (kd/kₐ).

[4] = biological target: T4, active MMP-9 (as used in the enzymatic kinetic assay and the XAS studies); assay: enzyme kinetics, fluorogenic peptide hydrolysis, fit to competitive inhibition
Experimental: (§2) Similarly the enzymatic activity of TACE was measured by monitoring the degradation of fluorogenic peptide QF-45 (Mca-[…]dinitrophenyl)-NH2) (SEQ ID NO: 2). A range of different mAb concentrations (0.4-30 μM) were pre-incubated with 2 nM of active enzyme in 50 mM Tris buffer (pH 7.5 37° C.), 200 mM NaCl, 5 mM CaCl₂, and 0.05% Brij 35 for 40 minutes at 37° C. The enzymatic reaction was initiated by addition of 10 μM of the fluorogenic peptide. Fluorescence (as a measure of substrate degradation) was immediately recorded continuously for 30-50 minutes. Initial reaction rates were measured and inhibition constants were evaluated by fitting to equation of competitive inhibition (vi/vo=Km+[S]/(Km(1+I/Ki)+[S]) [I. H. Segel, Enzyme Kinetics (Wiley-Interscience Publication, 1993)], where vi is initial velocity in the presence of mAb, vo is the initial velocity in the absence of mAb inhibitor, S is substrate concentration Km is the Michaelis-Menten constant and I is mAb concentration.
(§3) The effect of SDS3 and SDS4 on MMPs' enzymatic activity was examined using to standard peptide hydrolysis assay based on conversion of fluorogenic peptide substrate [C. G. Knight, F. Willenbrock, G. Murphy, FEBS Lett 296, 263 (Jan. 27, 1992)] as well as native gelatin substrate. Initial reaction velocities were measured in the presence of several concentrations of metallobodies incubated with various MMPs and tumor necrosis factor-alpha converting enzyme (TACE).

[5] = biological target: MMP-2 (as used in the enzymatic kinetic assay); assay: as above
Sequence of MMP-2 (as used in the enzymatic kinetic assay) (P33434 110-467): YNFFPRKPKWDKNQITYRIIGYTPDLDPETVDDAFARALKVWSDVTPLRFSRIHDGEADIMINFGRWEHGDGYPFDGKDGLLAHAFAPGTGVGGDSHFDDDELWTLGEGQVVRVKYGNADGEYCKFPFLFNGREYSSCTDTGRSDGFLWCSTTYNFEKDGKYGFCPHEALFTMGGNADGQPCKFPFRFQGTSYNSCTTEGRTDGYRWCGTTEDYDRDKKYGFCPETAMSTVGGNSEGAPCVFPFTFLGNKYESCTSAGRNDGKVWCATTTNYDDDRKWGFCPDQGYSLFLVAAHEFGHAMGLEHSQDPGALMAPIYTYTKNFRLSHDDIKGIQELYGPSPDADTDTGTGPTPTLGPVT
Experimental: as §2, §3

[6] = biological target: T5, human MT1-MMP catalytic domain (human, UniProt P50281 114-290); assay: as above
T5 construct: range 114-290; also called MMP-14; MMP-14 catalytic domain; not shown: N-terminal His tag from the pET3a construct
Experimental: as §2, §3

[7] = biological target: T4, active MMP-9 (as used in the enzymatic …); assay: cell-based or functional assay
[8] = biological target: MMP-2 (as used in the enzymatic kinetic assay); assay: cell-based or functional assay
[9] = biological target: T5, human MT1-MMP catalytic domain; assay: cell-based or functional assay
[10] = biological target: T6, native bovine serum albumin (bovine, UniProt P02769 25-607); assay: ELISA screen of hybridoma supernatants on plate-absorbed antigen
T6 construct: Unconjugated carrier protein used as the counter-screen in the hybridoma ELISA; also called native BSA; BSA
T6 sequence (P02769 25-607 limits assumed): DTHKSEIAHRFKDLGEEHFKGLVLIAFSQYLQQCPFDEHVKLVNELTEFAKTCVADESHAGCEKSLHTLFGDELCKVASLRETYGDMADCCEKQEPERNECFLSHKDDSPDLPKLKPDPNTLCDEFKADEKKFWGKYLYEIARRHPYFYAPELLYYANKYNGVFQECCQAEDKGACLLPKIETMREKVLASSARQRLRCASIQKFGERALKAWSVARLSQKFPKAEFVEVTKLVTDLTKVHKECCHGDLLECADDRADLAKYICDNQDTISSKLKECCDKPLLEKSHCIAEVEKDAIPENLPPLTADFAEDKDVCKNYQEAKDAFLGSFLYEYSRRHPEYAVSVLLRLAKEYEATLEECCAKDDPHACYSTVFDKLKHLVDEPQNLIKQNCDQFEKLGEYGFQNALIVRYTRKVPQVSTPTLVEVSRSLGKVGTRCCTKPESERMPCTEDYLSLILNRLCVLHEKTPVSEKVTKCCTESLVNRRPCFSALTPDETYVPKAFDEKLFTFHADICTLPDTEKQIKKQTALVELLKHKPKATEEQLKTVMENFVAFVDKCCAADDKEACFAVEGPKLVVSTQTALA
Experimental: Preparation of Anti-MMP Metallobodies Using Zn-Tripod-KLH as an Immunogen: Female BALB/c mice were immunized on day 1 with complete Freund adjuvant and 50 μg of Zinc-Tripod-KLH and boosted every two weeks with incomplete Freund adjuvant by emulsifying and intraperitoneal injection. Spleen cells from the immunized mice were fused with NSO murine myeloma cells and cultured in HAT (hypoxantine/aminopterin/thymidine) selection medium. The culture supernatants of the hybridoma were screened using an ELISA, employing pairs of wells in microtiter plates on which were absorbed MMP-9 catalytic domain and Zinc-Tripod-BSA as antigens (0.5 μg of MMP-9 or Zinc-Tripod-BSA conjugate per well). After incubation with 100 μl of the hybridoma supernatants, and with intervening washes with Tris-buffered saline, pH 7.5, containing 0.05% Tween 20 (TBS-Tween), the wells were incubated with a peroxidase-conjugated goat anti-mouse IgG, followed by a substrate solution containing 2′-azino-bis(3-ethylbenzthiazoline-6-sulfonic acid) diammonium salt. Hybridoma cells, corresponding to the supernatants that were positive on both MMP-9 and Zinc-Tripod—BSA and negative on native BSA, were then cloned by limited dilution. After repeated screenings, four clones showing the most distinctive recognition of both antigens were obtained and clone SDS3 was chosen for further characterization.

Human pro-MMP-2 = biological target: T2, Human pro-MMP-2; assay: pull-down with SDS3 on protein A beads, SDS-PAGE, Coomassie staining
Experimental: (§4) FIGS. 7A-B are photographs illustrating that SDS3 recognizes only the active conformation of MMP-2 and -9. FIG. 7A: Western blot analyses of MMP-9 using commercial anti-MMP-9 antibody. Lane 1—SDS3 captured from mice ascetic fluid by protein G beads; lane 2—As control non-related IgG similarly captured; lane 3—ProMMP-9, as a molecular weight marker to discern the active species. FIG. 7B: SDS3 mAb immobilized to protein A beads was analyzed for its ability to pull down purified ProMMP-9 (top), ProMMP-2 (middle) or active MMP-2 (bottom). Immunoprecipitates (lane 1) and unbound fraction (lane 2) were separated on SDS/PAGE gel, and visualized by Coomassie-staining. As a negative control for non-specific adsorption, enzyme alone was incubated with protein A Sepharose beads (lane 3).
(§5) After washing unbound antibody, purified enzyme ProMMP-9, Pro-MMP-2, or active MMP-2 fragment (catalytic and fibronectin domain), was added following 2 hour incubation under continuous stirring at room temperature. Bead-bound immune complex was collected by centrifugation and washed three times with PBS. Bound proteins were eluted with SDS sample buffer, fractionated by SDS-PAGE, and detected by Coomassie blue staining. As negative control for non specific adsorption enzyme was incubated with protein A Sepharose beads.

Human Pro-MMP-9 = biological target: T7, Human Pro-MMP-9 (human, UniProt P14780 20-707); assay: as above
T7 construct: Zymogen with pro-domain; also called MMP-9 zymogen
T7 sequence (P14780 20-707): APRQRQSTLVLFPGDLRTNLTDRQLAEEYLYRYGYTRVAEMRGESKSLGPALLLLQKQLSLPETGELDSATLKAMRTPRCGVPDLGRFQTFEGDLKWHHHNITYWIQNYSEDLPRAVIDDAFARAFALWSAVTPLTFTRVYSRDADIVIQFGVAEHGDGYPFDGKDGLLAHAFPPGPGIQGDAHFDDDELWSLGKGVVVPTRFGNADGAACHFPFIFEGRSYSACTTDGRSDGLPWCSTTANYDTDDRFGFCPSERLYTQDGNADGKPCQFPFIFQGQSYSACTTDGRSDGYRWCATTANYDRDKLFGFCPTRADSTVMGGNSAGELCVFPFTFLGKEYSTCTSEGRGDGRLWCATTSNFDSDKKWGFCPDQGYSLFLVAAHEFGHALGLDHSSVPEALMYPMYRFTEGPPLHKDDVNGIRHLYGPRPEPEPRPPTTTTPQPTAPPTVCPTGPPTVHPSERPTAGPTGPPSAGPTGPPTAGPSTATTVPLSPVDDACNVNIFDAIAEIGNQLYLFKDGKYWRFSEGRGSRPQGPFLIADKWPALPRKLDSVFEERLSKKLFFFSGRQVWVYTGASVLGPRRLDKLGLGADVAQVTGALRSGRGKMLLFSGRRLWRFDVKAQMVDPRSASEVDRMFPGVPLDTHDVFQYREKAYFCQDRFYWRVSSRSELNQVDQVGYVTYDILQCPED
Experimental: as §4, §5

[11] = biological target: T4, active MMP-9 (as used in the enzymatic …); assay: cell-based or functional assay; remark: listed apart in the source

Kd [1] [µM]	EC50 [2] [µM]	koff [3] [s⁻¹]	kon [3] [M⁻¹ s⁻¹]	Ki [4] [µM]	Ki [5] [µM]	Ki [6] [µM]	IC50 of inhibition of enzymatic activity (fluorogenic peptide hydrolysis) [7] [µM]	IC50 of inhibition of enzymatic activity (fluorogenic peptide hydrolysis) [8] [µM]	IC50 of inhibition of enzymatic activity (fluorogenic peptide hydrolysis) [9] [µM]	binding result [10]	binding result (Human pro-MMP-2)	binding result (Human Pro-MMP-9)	IC50 (read off the curve) [11] [µM]	Binder
0.00378	0.015	0.00166	439000	0.054	0.054	1.4	0.07	0.056	1.42					SDS4 (antibody, V domains shown, Mouse hybridoma monoclonal antibody raised against Zn-Tripod-KLH; also called SDS4 mAb; SDS4 metallobody) VH: EVQLQQSGPELVKPGASVKISCKASGYTFTGYYMHWVKQSPEKSLEWIGEINPSTGGTTYNQKFTGKATLTVDKSSSTAYMQLKSLTSDDSAVYYCASYYRYDWFAYWGQGTLVTVSA VL: DVLMTQTPLSLPVSLGDQASISCRSSQSLVHSNGNTYLHWYLQKPGQSPKLLIYKVSNRFSGVPDRFSGSGSGTDFTLKISRVEAEDLGVYFCSQSTHVPFTFGSGTKLELKR
0.2	0.2	0.00135	6640	1	1		1	1.4		no binding	no binding	no binding	~3	SDS3 (antibody, V domains shown, Mouse hybridoma monoclonal antibody raised against Zn-Tripod-KLH; also called SDS3 mAb; SDS3 metallobody) VH: VQLQESGGGLVKPGGSLKLSCAASGFAFSTYDMSWIRQTPEKRLEWVATISSGGSYTYYPDSVKGRFTISKDNARNTLYLQMSSLRSGDTALYYCTRFRYDGWYFDVWGQG VL: DVLITQTPLSLPVSLGDQASISCRSSQSIVHSNGNTFLEWYLQKPGQSPKLLIYKVSNRFSGVPDRFSGSGSGTDFTLKISRVEAEDLGVYYCFQASHVPPTFGGG
